*1 amine or outer side, *2 acyl side, *3 side chain or, on linkers, in order; H or OH if unused. Where no end group is shown, it is not given here. Side-chain parts run from the residue outwards. [ ]: non-standard residue; d: D form. The star is where a group is joined. C20 diacid = O=C(O)CCCCCCCCCCCCCCCCCCC(=O)*; C18 diacid = O=C(O)CCCCCCCCCCCCCCCCC(=O)*; γGlu = O=C(O)[C@H](CCC(=O)[*:2])N[*:1]; Desaminohistidyl = O=C(CCc1c[nH]cn1)*; AEEA = NCCOCCOCC(=O)O; Aib = CC(C)(N)C(=O)O

Assay [1] deals with T1, human GLP-1 receptor (human, UniProt P43220 24-463). The experiment in a line: cell-based or functional assay.
In assay [2] the target is T2, human glucagon receptor (human, UniProt P47871 26-477). The experiment in a line: cell-based or functional assay.
T2 sequence (P47871 26-477): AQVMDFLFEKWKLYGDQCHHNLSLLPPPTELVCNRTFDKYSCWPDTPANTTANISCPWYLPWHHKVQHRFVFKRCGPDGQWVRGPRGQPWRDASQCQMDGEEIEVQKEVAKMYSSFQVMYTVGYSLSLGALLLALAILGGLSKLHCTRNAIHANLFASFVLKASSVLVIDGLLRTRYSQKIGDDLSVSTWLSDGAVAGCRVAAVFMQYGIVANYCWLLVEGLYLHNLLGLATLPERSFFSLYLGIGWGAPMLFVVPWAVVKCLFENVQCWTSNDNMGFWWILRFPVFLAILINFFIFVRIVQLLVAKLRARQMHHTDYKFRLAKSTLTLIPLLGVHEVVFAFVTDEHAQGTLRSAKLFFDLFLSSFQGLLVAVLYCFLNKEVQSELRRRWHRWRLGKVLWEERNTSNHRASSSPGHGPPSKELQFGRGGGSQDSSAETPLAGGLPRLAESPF
Assay [3] has as its target T1, human GLP-1 receptor. In words: SPA displacement of [125I]GLP-1(7-36)NH2 from hGLP-1R BHK membranes. As to the method: The GLP-1 receptor binding of each derivatives were determined with competitive binding, displacing [¹²⁵I]GLP-1 bound to GLP-1 receptors expressed in cell membranes associated with wheat germ agglutinin (WGA) scintillation proximity assay (SPA) beads. Each derivative was added in a series of concentrations to isolated membranes comprising the human GLP-1 receptor and displacement of the labelled radioligand was monitored. The receptor binding was reported as the concentration at which half of the labelled ligand is displaced from the receptor, the IC⁵⁰ value.
1. For the receptor binding assay 50 μl of the assay buffer was added to each well of an assay plate. [0588] 2. Test compounds were serially diluted to give the following concentrations: 8×10EE-7 M, 8×10EE-8 M, 8×10EE-9 M, 8×10EE-10 M, 8×10EE-11 M, 8×10EE-12 M and 8×10EE-13 M. Twenty-five μl were added to appropriate wells in the assay plate. [0589] 3. Cell membrane aliquots were thawed and diluted to their working concentration. Fifty μl were added to each well in the assay plate. [0590] 4. WGA SPA beads were suspended in assay buffer at 20 mg/ml. The suspension was diluted to 10 mg/ml in assay buffer just prior to addition to the assay plate. Fifty μl were added to each well in the assay plate. [0591] 5. […] A 25 μl aliquot was reserved for measuring total counts/well. [0592] 6. The assay plate was incubated for 2 h at 30° C. [0593] 7. The assay plate was centrifuged for 10 min. [0594] 8. The assay plate was read in a Perkin Elmer TopCount NXT instrument.
A general note: Displacement assays read how much labelled ligand stays bound in the presence of the test substance.

The target in assay [4] is T2, human glucagon receptor. In words: SPA displacement of [125I]-glucagon from human glucagon receptor BHK membranes. On the procedure: 1. For the receptor binding assay 50 μl of the assay buffer was added to each well of an assay plate. [0603] 2. Test compounds were serially diluted to give the following concentrations: 8×10EE-7 M, 8×10EE-8 M, 8×10EE-9 M, 8×10EE-10 M, 8×10EE-11 M, 8×10EE-12 M and 8×10EE-13 M. Twenty-five μl were added to appropriate wells in the assay plate. [0604] 3. Cell membrane aliquots were thawed and diluted to their working concentration. Fifty μl were added to each well in the assay plate. [0605] 4. WGA SPA beads were suspended in assay buffer at 20 mg/ml. The suspension was diluted to 10 mg/ml in assay buffer just prior to addition to the assay plate. Fifty μl were added to each well in the assay plate. [0606] 5. […] A 25 μl aliquot was reserved for measuring total counts/well. […] 6. The assay plate was incubated for 2 h at 25° C. [0608] 7. The assay plate was centrifuged for 10 min at 1500 rpm. [0609] 8. The assay plate was read in a Perkin Elmer TopCount NXT instrument.

By IC50 is commonly meant the concentration at which inhibition is half-maximal. For [Desaminohistidyl][Aib]HGTFTSDVSKYLEEQAAREFIAWLLK([Gly-Ser-Glu-Gly-Ser-γGlu-γGlu-C20 diacid])T-NH2, the “EC50 GLP-1R [pM], CRE luciferase reporter gene assay” value (“EC50 GLP-1R [pM]” for short) in the assay with human GLP-1 receptor [1] was determined as 5 pM. Further, the “EC50 GlucagonR [pM], CRE luciferase reporter gene assay” value (shortened to “EC50 GlucagonR [pM]”) in the assay with human glucagon receptor [2] was 111 pM. Besides, the concentration for half-maximal inhibition (IC50) with human GLP-1 receptor [3] is 0.4 nM; with human glucagon receptor [4], 6 nM.

Turning to [Desaminohistidyl][Aib]HGTFTSDVSKYLEEQAAREFIAWLLK([Ado-Ado-γGlu-C18 diacid])T-NH2, the “EC50 GLP-1R [pM]” value in the assay with human GLP-1 receptor [1] amounted to 6 pM. Also, in the assay with human glucagon receptor [2], the “EC50 GlucagonR [pM]” value amounted to 83 pM. The IC50 in the assay with human GLP-1 receptor [3] came out at 0.7 nM; in the assay with human glucagon receptor [4], 20.3 nM.

In the case of [Desaminohistidyl]AHGTFTSDVSKYLEGRAAREFIAWLLK([Ado-Ado-γGlu-γGlu-γGlu-C18 diacid])T-NH2, the “EC50 GLP-1R [pM]” value in the assay with human GLP-1 receptor [1] came out at 8 pM. For the same molecule, the “EC50 GlucagonR [pM]” value with human glucagon receptor [2] was determined as 229 pM. Further, the 50% inhibitory concentration (IC50) with human GLP-1 receptor [3] worked out at 1 nM; with human glucagon receptor [4], 25.9 nM.

B1: N^ε34-[(4S)-4-carboxy-4-[[(4S)-4-carboxy-4-[[(2S)-2-[[2-[[(2S)-4-carboxy-2-[[(2S)-2-[[2-(17-carboxyheptadecanoylamino)acetyl]amino]-3-hydroxypropanoyl]amino]but … (peptide)
peptide: [Desaminohistidyl][Aib]HGTFTSDVSKYLEEQAAREFIAWLLK([γGlu-γGlu-Ser-Gly-Glu-Ser-Gly-C18 diacid])T
notes: Named as peptide, not peptide amide (C-terminal acid)
As to B1, the “EC50 GLP-1R [pM]” value with human GLP-1 receptor [1] is 5.5 pM. In addition, the “EC50 GlucagonR [pM]” value in the assay with human glucagon receptor [2] amounted to 84.5 pM. Besides, the concentration for half-maximal inhibition (IC50) with human GLP-1 receptor [3] came to 2.3 nM; with human glucagon receptor [4], 11.9 nM.

Take [Desaminohistidyl][Aib]HGTFTSDVSRYLEEQAARK([AEEA-AEEA-γGlu-γGlu-γGlu-C18 diacid])FIAWLLR: the “EC50 GLP-1R [pM]” value in the assay with human GLP-1 receptor [1] stood at 7 pM. Also, in the assay with human glucagon receptor [2], the “EC50 GlucagonR [pM]” value worked out at 143 pM. The concentration for half-maximal inhibition (IC50) was 2.9 nM with human GLP-1 receptor [3] and 21.2 nM with human glucagon receptor [4].

Take [Desaminohistidyl]AHGTFTSDVSRYLEEQAARK([AEEA-AEEA-γGlu-γGlu-γGlu-C18 diacid])FIAWLLR: the “EC50 GLP-1R [pM]” value in the assay with human GLP-1 receptor [1] is 8 pM. In addition, the “EC50 GlucagonR [pM]” value with human glucagon receptor [2] came to 1290 pM. Further, the IC50 is 2.2 nM in the assay with human GLP-1 receptor [3] and 126 nM with human glucagon receptor [4].

Regarding [Desaminohistidyl][Aib]HGTFTSDVSKYLEEQAAREFIAWLIK([Ado-Ado-γGlu-γGlu-C18 diacid])T-NH2, the “EC50 GLP-1R [pM]” value with human GLP-1 receptor [1] worked out at 18.3 pM. In addition, the “EC50 GlucagonR [pM]” value with human glucagon receptor [2] is 106 pM. For the same molecule, the results for the half-maximal inhibitory concentration (IC50) in the assay with human GLP-1 receptor [3] and with human glucagon receptor [4] were 0.2 nM and 11.8 nM, respectively.

B2: N^ε35-[(4S)-4-carboxy-4-[[2-[2-[2-[[(4S)-4-carboxy-4-[[2-[2-[2-[[(4S)-4-carboxy-4-[[2-[2-[2-[[(4S)-4-carboxy-4-[[(4S)-4-carboxy-4-(17-carboxyheptadecanoylamino) … (peptide)
peptide: XXHGTFTSDYSKYLERRAAREFIAWLLKK
modifications: Imp (desamino-His) at 7; Acb at 8; Lys35 N-epsilon acylated with 17-carboxyheptadecanoyl-γGlu-γGlu-Ado-γGlu-Ado-γGlu-Ado-γGlu-; C-terminal amide (GLP-1(7-37) numbering)
In the case of B2, the “EC50 GLP-1R [pM]” value with human GLP-1 receptor [1] was determined as 8 pM. The “EC50 GlucagonR [pM]” value with human glucagon receptor [2] was determined as 54 pM. The concentration for half-maximal inhibition (IC50) is 1.8 nM with human GLP-1 receptor [3] and 8.6 nM with human glucagon receptor [4].

B3: N^ε35-[(4S)-4-carboxy-4-[[2-[2-[2-[[(4S)-4-carboxy-4-[[2-[2-[2-[[(4S)-4-carboxy-4-[[2-[2-[2-[[(4S)-4-carboxy-4-[[(4S)-4-carboxy-4-(17-carboxyheptadecanoylamino) … (peptide)
peptide: XXHGTFTSDYSRYLEGRAAREFIAWLLRK
modifications: Imp (desamino-His) at 7; Acb at 8; Lys35 N-epsilon acylated with 17-carboxyheptadecanoyl-γGlu-γGlu-Ado-γGlu-Ado-γGlu-Ado-γGlu-; C-terminal amide (GLP-1(7-37) numbering)
As for B3, the “EC50 GLP-1R [pM]” value with human GLP-1 receptor [1] came out at 18.5 pM. The “EC50 GlucagonR [pM]” value in the assay with human glucagon receptor [2] is 226 pM. For the same molecule, the IC50 with human GLP-1 receptor [3] came to 6.8 nM; in the assay with human glucagon receptor [4] it was 36.7 nM.

Values taken from US20160102129A1 (Novo Nordisk, published 2016).
